Reference: the nanobody polyreactivity screen of Harvey et al. (2022)

Assay: yeast display, Sf9 membrane polyspecificity reagent, FACS + sequencing; frameworks hold sequencing errors
Summary of the method: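 After 36–48 hours of galactose induction, yeast (Saccharomyces cerevisiae BJ5465) displaying a synthetic nanobody library were stained at 4 °C for 1 hour with 10% biotinylated, detergent-solubilized Sf9 membrane reagent. Streptavidin microbeads enriched the stained cells before FACS sorting into low and high (top ~1%) gates on anti-HA and streptavidin fluorescence. Each clone's polyreactivity label reflects its gate of origin.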

Row | Sequence | polyreactivity (PSR sort gate)
1 | QVQLVESGGGLVQAGGRLRLSCAASGSTFQQYGMGWYRQAPGKERELVAAISGGVSTYYADSLKGLFTISRDHAKNTVYLQMYSLKPEDTAVYYCNADTSYSEWGSWYYEYDYWGQGTQVTVSS | low polyreactivity
2 | QVQLVESGGGLVQAGGRLRLSCAASGSTFRYYAMGWYRQAPWKERELVAAISSTGTRTYYADSVKGRFTISRDNAKNTVYLQMNSLKPEDTAVSYCAADYVRYATRYDYWGQGTQVTVSS | high polyreactivity
3 | QVQLVESGGGLVQAGGRLRLSCAASGSTFSYYAMGWYRQAPGKEREMVAAISRTGGSTYYADSVKGRCTISRDNAKNTVYLQMNSLKAEDTAFYYCNARAPVGTFDYDYWGQGTQVTVSS | low polyreactivity
4 | QVQLVESGGGLVQAGGRLRLSCAASGSTFTDYAMGWYRQAPRKERELVASITSGGRTNYADSVKGRFTITRDNAKNTVYLQMNSLKPEDTAVYYCAADYSVPTSQAYDYWGQGTQVTVSS | low polyreactivity
5 | QVQLVESGGGLVQAGGRLRLSCAASGSTFYNYAMGWYRQAPGKERELVASIPWNGGSTYYADSVKGRFTISRDNAKNTVYLQMNSLKPEDTAVYYCAADWTWTYPYDYWGQGTQVTVSS | low polyreactivity
6 | QVQLVESGGGLVQAGGRLRLSCAASGSTFYSNAMGWYRQAPGKERELVASIRFSGVITTYADSVKGRFTISRDNAKNTVYLQMNSLKPEDTAVYYCDAGYLSTTAYDYWGQGTQVTVSS | low polyreactivity
7 | QVQLVESGGGLVQAGGRLRLSCAASGSTIRLYAKGWYRQAPGKERELVAAISVSGGSTHYADSVKGRFTISRDNAKNTVYLQMNSLKPEDTAVYYCNAAGNPVSRYHYDYWGQGTQVTVSS | high polyreactivity
8 | QVQLVESGGGLVQAGGRLRLSCAASGTIFDFYAMGWYRQAPGKERELVATITASGGSTYYADSVKGRFTISRDNAKNTVYLQMKSLKPEDTAVYYCAAVGPHWYGQGWALYRFEYWGQGTQVTVSS | low polyreactivity
9 | QVQLVESGGGLVQAGGRLRLSCAASGYIFSYYAMAWYRQAPGKERELVASITSSGGSTYYADSVKGRFTISRDNAKNTVYLQMNSLKPEVTAVSYCAAYSLYGYDYWGQGTQVTVSS | low polyreactivity
10 | QVQLVESGGGLVQAGGRLRLSCAASGYTFTHYAMGLYRQAPVKESELVASIRNSGSRTYYADSVKGRFTISPDNAKNTVYLQLNSLKPEDTAVYYCAAKTTTPYRYIYYYWGQGTQVTVSS | high polyreactivity
11 | QVQLVESGGGLVQAGGRLRLSCAASLYIYGGYGMGWYRKAPGKERELVAVITSSVSTDYADSVKGSFTISRDNAKNTVYLQMKSLKPEDTAVYYSSADFLWYIYNIGTSLEFEYWGQGTQVTVSS | low polyreactivity
12 | QVQLVESGGGLVQAGGRLRLSCAASVRILGKYAMGWYRQAPGKERELVAAIRLRGGSTYYADSVKGRFTISRDNAKNTVYLQMNSLKPEDTAVYYCAARYWDRSQAYYYWGQGTQVTVSS | high polyreactivity
13 | QVQLVESGGGLVQAGGRLRLSCAATGSTFEVYAMGWYRQAPGKERELVAVINVSDGSTYYADSVKGRFTISRDNAKNTVYLQMNSLKPEDTAVYLCAAYLYNRPYQLTGYYDGYGYWGQGTQVTVSS | low polyreactivity
14 | QVQLVESGGGLVQAGGRLRLSCADSGIIFRAYTIGWYRQATGKERELVAGITSGGSTYYADSVKGRFTISRDNAKNTVYLQMNSLKPEDTAVYYCATYYGRWTPIPYEYWGQGTQVTVSS | high polyreactivity
15 | QVQLVESGGGLVQAGGRLRLSCAPSGGIFNPNVMGGYRQSPGKETELVASITGRGGNTYYADSVKGRFTISRDNAKNTVYLQMNSLKPEDTAVYYCAAAIPHHSRVYYWGQGPQVTVSS | low polyreactivity
16 | QVQLVESGGGLVQAGGRLRLSCGASGIIFVYYTMGWDRQAPGKERELVAAITSGGSTYYADSVKGRFTISRDNAKNTVFLQINSLKPEDTAVYYCAAVGRPPYAGDRGFRGQGTQVTVSS | high polyreactivity
17 | QVQLVESGGGLVQAGGRLRLSCTASGIIFGTYAMGWYRQAPGKERELVAAISSSGVSTYYADSVKGRFTISRDNAKNTVYLQMNSLKPEDTAVYYCAAPLHYGYYYWGQGTQVTVSS | high polyreactivity
18 | QVQLVESGGGLVQAGGRLRLSGAASGLIFTTYAMGWSRQAPGKVRELVAAISSSGDSTYYADSVKGRFTISRDNAKNTVYLQMNSLKPEDTAVYYRAARYYYRGYEFGYWGQGTQVTVSS | high polyreactivity
19 | QVQLVESGGGLVQAGGRLRRICAASGRIYSRYTMGWYRQAPGKERQLVAVITSGGSTYYADSVKGRFTISRDNAKNTVYLQMNSLKPDDTAVYYCNAVRFTYGGYLRRYDYWGHGTQVTVSS | high polyreactivity
20 | QVQLVESGGGLVQAGGRRRLSCAASGSTYNPYPMGWYRQAPGKERELLATITWRGTSTYYADSVKGRFTISRDNAKYTVYLQMNSLKPEDTAVYYGAKGFVYNYPKTYKSYSTYYYWGQGTQVTVSS | high polyreactivity
21 | QVQLVESGGGLVQAGGSDRLSCAASGSIIDYYAMGWYRQAPGKERELVADITVTGDGTYYADSVKGRFTISRDNAKNTVYLQMNSLKPEDTAVYYCAAAGVYYGVRGTTYAYDYWGQGTQVTVSS | low polyreactivity
22 | QVQLVESGGGLVQAGGSFRLSCAASGFTLYGNAMGWSRQAPGNDRELVATIRSTGSTTYADSVKGRFTISRDNAKNTVYLQMNSLKPEDTAVHYCAKVSTYGGRHRWPGSIYDYWGQGTQVTVSS | low polyreactivity

Row | Sequence | polyreactivity (PSR sort gate)
23 | QVQLVESGGGLVQAGGSFRLSCAASGSIFDGYAMGWYRQAPGTERELVAAISSGGDSTYYADSVKGRFTISRDNAKNTVYLQMNSLKPEDTAVYYCNADSLVGHSYDYWGQGTQVTVSS | low polyreactivity
24 | QVQLVESGGGLVQAGGSFRLSCAASGSIFVVYAMGWYRQAPGKERELVAAITSGGSTYYADSVKGRFTISRDNAKNTVYLQMNSLKPEDTAVYYCATTYRDGVYELTTFDYWGQGTQVTVSS | low polyreactivity
25 | QVQLVESGGGLVQAGGSFRLSSAPSGSIFVVYAMGGYIQAPGKERELVAAITSGGSTYYADSVKGRFTISRDNAKNTVYLQMNSLKPEDTAVYYCATTYRDGVYELSTFDYWGQGTQVTVSS | low polyreactivity
26 | QVQLVESGGGLVQAGGSHRFSCAASGFTFGHDTMGWYRQAPGKERELVAAITWRGGTYYADSEKGRFTISRDNAMNTVYLQMNSMKPEDTAVYYCAKRRASRYYWGQGTQVTVSS | high polyreactivity
27 | QVQLVESGGGLVQAGGSHRLICAASGFNFYIYAMGWYRQAPGKERELVAAISWNGGSTYYADSVKGRFTISRDIAKNTVYLQMNSLKPEDTAVYYCAARHYYFYYHGYVKYDYWGQGTQVTVSS | high polyreactivity
28 | QVQLVESGGGLVQAGGSHRLSCAASGFIFRRNAMGWYRQAPGKERELVAAITKSGGSTYYADSVKGRFTISRDNAKNTVYLQMNSLKPEDTAVYYCAAKRQTGQSYYWGQGTQVTVSS | high polyreactivity
29 | QVQLVESGGGLVQAGGSHRLSCAASGFTFIGYPMGWYRQAPGKERELVAAITQSGGSTFYADSVKGRFTISRDNAKNTVYLHMNSLKPEDTAVYYCNAYRKFRYWGHGTQVTVSS | low polyreactivity
30 | QVQLVESGGGLVQAGGSHRLSCAASGIIIEGNVMGWSRQSPGKQSELVAAITSDTSTNYGDSVKGRFTISRDNATNTVYLQMNSLKPEDTGVYYCNAVIGTDYFYSGTAEFYYWGQGTQVTVSS | low polyreactivity
31 | QVQLVESGGGLVQAGGSHRLSCAASGITFPYYAMGCYRQAPVKERELVAAISSSGGSTYYADSVKGRFTISRDNAKNTVYLQMNSLKPEDTAVYYCNKRYVVYPGNYWRYDYWGQGTQVTVSS | high polyreactivity
32 | QVQLVESGGGLVQAGGSHRLSCAASGLIIGYYDMGWYRQAPGQERELVAAITQSSGSTYYADSVKGRFTISRDNAKNTVYLQMNRLKREDTAVYYCARRKWKFADNYKLDYWGQGTQVTVSS | low polyreactivity
33 | QVQLVESGGGLVQAGGSHRLSCAASGLTLYQYTMGWYRQAPGKERELVAAITTSGSTYYADSVKGRFTISRDNEKNTVYLQMNSLKPEDTAVYYCAAVVYYVDTLSGYRYGYDYWGQCTQVTVSS | low polyreactivity
34 | QVQLVESGGGLVQAGGSHRLSCAASGRIFGRNAMGCYRQAPGKERELVATITSGGGTNYADSVKGRFTISRDNAKNTVYLQMNSLKPEDTAVYYCAATVAILRKFWMDYWGQGTQVTVSS | low polyreactivity
35 | QVQLVESGGGLVQAGGSHRLSCAASGRIFRVYVMGWYRQAPGKEREFVAAISRRGSRTYADSVKGRFTISRDNAKNTVYLLMNSLKTEDTAVYYWAAECGYQAHPGQGDYWGQGTQVTVSS | high polyreactivity
36 | QVQLVESGGGLVQAGGSHRLSCAASGRIFVGYAMGWYRQAPGKERELVAGISGGGRTNYADSVKGRFTISRDNAKNTVYLQMNSLKPEDTAVYYCIAGGSVWYRSQRGWKGYYNQMDYWGQGTQVTVSS | high polyreactivity
37 | QVQLVESGGGLVQAGGSHRLSCAASGRIIESYAMGWYRQAPGKERELVAAISSNDGSTYYADSVKGRFTISRDNAKNTVYLQMNSLKPEDTAVYDCAAELGQVDYGGPSYDYWGQGTQVTVSS | low polyreactivity
38 | QVQLVESGGGLVQAGGSHRLSCAASGRLFRYYDMGWYRQAPGKERELVARISSTGRTYADSVMGRFTISRDNAKNTVYLQMNSLKPVDTAVYYCAALFHTRGHSKYDYWGQGTQVTVSS | high polyreactivity
39 | QVQLVESGGGLVQAGGSHRLSCAASGRTFGHNAMGWYRQAPGKEMEFVASIRSGGITDYADSVKGRFTISRDNAKNTVYLQMNSLKPEDTAVYYCAADVLDWYDLLRDDYWGQGTQVTVSS | low polyreactivity
40 | QVQLVESGGGLVQAGGSHRLSCAASGRTFWYNAMGWYRQAPGKERELVAAITSGDSTNYADSVKGRFTISRDNAKNTVYLQMNSLKPEVTAAYYCAAEGRPNWYYWAEGYYWGQGTQVTVSS | high polyreactivity
41 | QVQLVESGGGLVQAGGSHRLSCAASGRTFYINAMGWYRQAPGKERELVAAISIRGGGTYYADSVKGRFTISRDNAKNTVYLQMNSLKPEDTAVYYCAAEYTEGYTHDYWGQGTQVTVSS | low polyreactivity
42 | QVQLVESGGGLVQAGGSHRLSCAASGRTFYYNAMGVYRQAPGKERELVAGITRSGSSTYYADSVKGRFTISRVNAKNTVYLQMNSLKPEDTAVYYCATRRSGYYSFYYWGQGTQVTVSS | high polyreactivity
43 | QVQLVESGGGLVQAGGSHRLSCAASGSTFEYNDMGGNRQEQGKERELVAAISSGGDTNYADSVKGRFTISRDNAKNTVFLQMNSLKPEDTAVYYCAADDWSPYLCYYGYAGYYYCGQGTQVTVSS | low polyreactivity
